Experiments:
[1] = % dimer by size exclusion chromatography (SEC); assay type: physicochemical
Experimental: Gp96-peptide complex was isolated from murine CT-26 tumors. Separate aliquots of each preparation were either maintained at 4° C. (untreated) or subjected to mild heat treatment to denature the complex.
HPLC size exclusion chromatography is currently being optimized and has been run under a few different formats. The column was either a TSK 3000SWXL (Toso Haus) or a Superose 6 (Amersham Pharmacia) equilibrated in 10 mM phosphate buffer, pH 7.1, with 300 mM NaCl. All experiments were run at room temperature on a Waters Alliance or HP 1100 HPLC systems at a flow rate of 0.5 mL/min. The following results for human tumor derived gp96 (reported in Table 3, below) were all analyzed on the Superose 6 column. % dimer values represent the area percent of the dimer peak relative to total peak area.

NECA ligand binding = assay: NECA ligand binding
Experimental: Dimer content also correlates with the ability of gp96 to bind NECA. Using the gp96-peptide complex isolated from CT-26 tumors, aliquots of each preparation were also analyzed for NECA ligand binding.

[2] = tested on: murine antigen presenting cells; assay: MCP-1 secretion by antigen presenting cells; assay type: cell-based
Experimental: (§1) Further experiments indiate that dimer content correlates with the ability of gp96 to stimulate chemokine/nitric oxide release by antigen presenting cells. Gp96 purified from the Meth-A murine fibrosarcoma tumors, subjected to both thermal and pH perturbations. This material was analyzed by SEC and NECA binding for its ability to induce murine antigen presenting cells to secrete MCP-1 and nitric oxide. […] NECA ligand binding and both MCP-1 and NO production decreased concomitantly with the loss of dimer. A similar trend was observed upon exposure of gp96 to pH 3, but not pH 7 or 9.

[3] = tested on: murine antigen presenting cells; assay: nitric oxide (NO) secretion by antigen presenting cells; assay type: cell-based
Experimental: as §1

NECA binding ability (NECA ligand binding; heated to 50° C. and 60° C., at 30 minutes (FIG. 2B)): Neither sample of gp96 could bind NECA
NECA binding ability (NECA ligand binding; pH 3.0 (FIG. 2F)): markedly reduced
B1: gp96: Gp96 purified from the Meth-A murine fibrosarcoma tumors, subjected to thermal and pH perturbations (FIG. 2) (protein, UniProt P08113 22-802, looked up)
Endoplasmin: DDEVDVDGTVEEDLGKSREGSRTDDEVVQREEEAIQLDGLNASQIRELREKSEKFAFQAEVNRMMKLIINSLYKNKEIFLRELISNASDALDKIRLISLTDENALAGNEELTVKIKCDKEKNLLHVTDTGVGMTREELVKNLGTIAKSGTSEFLNKMTEAQEDGQSTSELIGQFGVGFYSAFLVADKVIVTSKHNNDTQHIWESDSNEFSVIADPRGNTLGRGTTITLVLKEEASDYLELDTIKNLVRKYSQFINFPIYVWSSKTETVEEPLEEDEAAKEEKEESDDEAAVEEEEEEKKPKTKKVEKTVWDWELMNDIKPIWQRPSKEVEEDEYKAFYKSFSKESDDPMAYIHFTAEGEVTFKSILFVPTSAPRGLFDEYGSKKSDYIKLYVRRVFITDDFHDMMPKYLNFVKGVVDSDDLPLNVSRETLQQHKLLKVIRKKLVRKTLDMIKKIADEKYNDTFWKEFGTNIKLGVIEDHSNRTRLAKLLRFQSSHHSTDITSLDQYVERMKEKQDKIYFMAGSSRKEAESSPFVERLLKKGYEVIYLTEPVDEYCIQALPEFDGKRFQNVAKEGVKFDESEKTKESREATEKEFEPLLNWMKDKALKDKIEKAVVSQRLTESPCALVASQYGWSGNMERIMKAQAYQTGKDISTNYYASQKKTFEINPRHPLIRDMLRRIKEDEDDKTVMDLAVVLFETATLRSGYLLPDTKAYGDRIERMLRLSLNIDPEAQVEEEPEEEPEDTSEDAEDSEQDEGEEMDAGTEEEEEETEKESTEKDEL
modifications: Meth-A tumor derived
dimer level ([1]; heated at 50° C. and 60° C., at 30 minutes (FIG. 2A)): Neither sample contained dimers
dimer levels ([1]; pH 3.0 (FIG. 2E)): markedly reduced
ability to stimulate murine APC secretion of MCP-1 ([2]; heated to 50° C. and 60° C. for 30 minutes (FIG. 2C)): rapid drop
MCP-1 secretion by murine APCs ([2]; pH 3.0 (FIG. 2G)): markedly reduced
ability to stimulate murine APC secretion of NO ([3]; heated to 50° C. and 60° C. for 30 minutes (FIG. 2D)): rapid drop
NO secretion by murine APCs ([3]; pH 3.0 (FIG. 2H)): markedly reduced

Source: patent US20050221395A1, “Methods and products based on oligomerization of stress proteins” (priority 2002, published 2005)
